Measured values taken from IntAct's records for PubMed 31515488.

B1: MYG1 exonuclease (Homo sapiens), Q9HB07 (parent)
chain: MGHRFLRGLLTLLLPPPPLYTRHRMLGPESVPPPKRSRSKLMAPPRIGTHNGTFHCDEALACALLRLLPEYRDAEIVRTRDPEKLASCDIVVDVGGEYDPRRHRYDHHQRSFTETMSSLSPGKPWQTKLSSAGLIYLHFGHKLLAQLLGTSEEDSMVGTLYDKMYENFVEEVDAVDNGISQWAEGEPRYALTTTLSARVARLNPTWNHPDQDTEAGFKRAMDLVQEEFLQRLDFYQHSWLPARALVEEALAQRFQVDPSGEIVELAKGACPWKEHLYHLESGLSPPVAIFFVIYTDQAGQWRIQCVPKEPHSFQSRLPLPEPWRGLRDEALDQVSGIPGCIFVHASGFIGGHRTREGALSMARATLAQRSYLPQIS
partner: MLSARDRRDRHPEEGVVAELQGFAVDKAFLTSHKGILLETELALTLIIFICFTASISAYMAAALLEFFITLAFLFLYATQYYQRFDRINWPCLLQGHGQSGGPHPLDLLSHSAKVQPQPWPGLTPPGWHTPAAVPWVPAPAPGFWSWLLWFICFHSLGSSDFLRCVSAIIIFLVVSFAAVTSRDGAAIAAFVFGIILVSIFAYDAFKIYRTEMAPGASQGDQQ
B2: E3 ubiquitin-protein ligase MARCHF5 (Homo sapiens), Q9NX47 (parent)
chain: MPDQALQQMLDRSCWVCFATDEDDRTAEWVRPCRCRGSTKWVHQACLQRWVDEKQRGNSTARVACPQCNAEYLIVFPKLGPVVYVLDLADRLISKACPFAAAGIMVGSIYWTAVTYGAVTVMQVVGHKEGLDVMERADPLFLLIGLPTIPVMLILGKMIRWEDYVLRLWRKYSNKLQILNSIFPGIGCPVPRIPAEANPLADHVSATRILCGALVFPTIATIVGKLMFSSVNSNLQRTILGGIAFVAIKGAFKVYFKQQQYLRQAHRKILNYPEQEEA
partner: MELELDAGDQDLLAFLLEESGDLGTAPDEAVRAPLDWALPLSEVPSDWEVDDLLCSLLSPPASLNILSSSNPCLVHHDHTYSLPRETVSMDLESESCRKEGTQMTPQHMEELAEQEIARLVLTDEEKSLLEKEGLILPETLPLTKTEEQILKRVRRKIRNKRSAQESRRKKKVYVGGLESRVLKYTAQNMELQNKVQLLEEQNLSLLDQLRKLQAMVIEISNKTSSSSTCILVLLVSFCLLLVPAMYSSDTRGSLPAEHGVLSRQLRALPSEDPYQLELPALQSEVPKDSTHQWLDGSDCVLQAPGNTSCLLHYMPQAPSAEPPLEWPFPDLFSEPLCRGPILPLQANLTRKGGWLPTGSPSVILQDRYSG
B3: Protein DBF4 homolog B (Homo sapiens), Q8NFT6 (parent)
chain: MSEPGKGDDCLELESSMAESRLRAPDLGVSRCLGKCQKNSPGARKHPFSGKSFYLDLPAGKNLQFLTGAIQQLGGVIEGFLSKEVSYIVSSRREVKAESSGKSHRGCPSPSPSEVRVETSAMVDPKGSHPRPSRKPVDSVPLSRGKELLQKAIRNQGSISGGGSGGSSSLLTNARSWGVRILHVDEMMMHVQQLSLASLCVKKQQPKKPEGTCPAAESRTRKVARLKAPFLKIEDESRKFRPFHHQFKSFPEISFLGPKDASPFEAPTTLGSMHHTRESKDGEPSPRSAAHTMPRRKKGYCECCQEAFEELHVHLQSAQHRSFALEAHLYAEVDRIIAQLSHSFADIPFQAGLPRWSGSPASDCDPLCPETLHPHQPSHPRAASPRIRKEDSCQASVTQGRAAGQQRWTESLDGVMGPPASHTCVSATTLLPALPKGSREQGCLCPCPASFTQSHLVTSLALLPGEWSPAEDMPLHPSQENSFAPADIPVKGPLLFPEARPWLMSARCWVRPFPFVTWGCLIPHDTTPLHEEVSPCPCLRLGYLYLLLTQSLWCRVRVPSLSTAGPIPRTSHPCTLAFPSYLNDHDLGHLCQAKPQGWNTPQPFLHCGFLAVDSG
partner: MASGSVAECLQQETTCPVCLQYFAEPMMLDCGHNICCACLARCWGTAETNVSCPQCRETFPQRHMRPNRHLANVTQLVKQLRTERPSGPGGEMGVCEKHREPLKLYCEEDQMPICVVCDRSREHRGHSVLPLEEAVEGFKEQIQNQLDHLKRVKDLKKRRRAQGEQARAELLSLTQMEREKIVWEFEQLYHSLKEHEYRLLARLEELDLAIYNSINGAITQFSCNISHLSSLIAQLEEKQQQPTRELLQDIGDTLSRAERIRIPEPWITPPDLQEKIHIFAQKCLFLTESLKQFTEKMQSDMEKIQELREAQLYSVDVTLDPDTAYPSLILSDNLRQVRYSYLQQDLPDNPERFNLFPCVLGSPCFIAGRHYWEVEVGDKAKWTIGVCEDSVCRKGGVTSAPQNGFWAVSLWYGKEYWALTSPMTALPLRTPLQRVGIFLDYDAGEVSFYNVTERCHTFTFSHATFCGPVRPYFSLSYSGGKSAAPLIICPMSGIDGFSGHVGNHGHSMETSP
B4: Protein phosphatase 1 regulatory inhibitor subunit 16B (Homo sapiens), Q96T49 (parent)
chain: MASHVDLLTELQLLEKVPTLERLRAAQKRRAQQLKKWAQYEQDLQHRKRKHERKRSTGGRRKKVSFEASVALLEASLRNDAEEVRYFLKNKVSPDLCNEDGLTALHQCCIDNFEEIVKLLLSHGANVNAKDNELWTPLHAAATCGHINLVKILVQYGADLLAVNSDGNMPYDLCEDEPTLDVIETCMAYQGITQEKINEMRVAPEQQMIADIHCMIAAGQDLDWIDAQGATLLHIAGANGYLRAAELLLDHGVRVDVKDWDGWEPLHAAAFWGQMQMAELLVSHGASLSARTSMDEMPIDLCEEEEFKVLLLELKHKHDVIMKSQLRHKSSLSRRTSSAGSRGKVVRRASLSDRTNLYRKEYEGEAILWQRSAAEDQRTSTYNGDIRETRTDQENKDPNPRLEKPVLLSEFPTKIPRGELDMPVENGLRAPVSAYQYALANGDVWKVHEVPDYSMAYGNPGVADATPPWSSYKEQSPQTLLELKRQRAAAKLLSHPFLSTHLGSSMARTGESSSEGKAPLIGGRTSPYSSNGTSVYYTVTSGDPPLLKFKAPIEEMEEKVHGCCRIS

Variants of: B1
Conditions: with cklf5_human CMTM5, Q96DZ9

| Variant | effect of a mutation on the interaction |
| --- | --- |
| R243Q | with no effect |

Variants of: B2
Conditions: with creb3_human CREB3, O43889

| Variant | effect of a mutation on the interaction |
| --- | --- |
| T20A | with no effect |
| D202N | with no effect |

Variants of: B3
Conditions: with tri27_human TRIM27, P14373

| Variant | effect of a mutation on the interaction |
| --- | --- |
| L199S | with no effect |

Variants of: B4
Conditions: with crx_human CRX

| Variant | effect of a mutation on the interaction |
| --- | --- |
| P519S | with no effect |

Variants of: B4
Conditions: with ikzf3_human IKZF3, Q9UKT9
Sequence of ikzf3_human IKZF3, Q9UKT9 (Q9UKT9 whole entry): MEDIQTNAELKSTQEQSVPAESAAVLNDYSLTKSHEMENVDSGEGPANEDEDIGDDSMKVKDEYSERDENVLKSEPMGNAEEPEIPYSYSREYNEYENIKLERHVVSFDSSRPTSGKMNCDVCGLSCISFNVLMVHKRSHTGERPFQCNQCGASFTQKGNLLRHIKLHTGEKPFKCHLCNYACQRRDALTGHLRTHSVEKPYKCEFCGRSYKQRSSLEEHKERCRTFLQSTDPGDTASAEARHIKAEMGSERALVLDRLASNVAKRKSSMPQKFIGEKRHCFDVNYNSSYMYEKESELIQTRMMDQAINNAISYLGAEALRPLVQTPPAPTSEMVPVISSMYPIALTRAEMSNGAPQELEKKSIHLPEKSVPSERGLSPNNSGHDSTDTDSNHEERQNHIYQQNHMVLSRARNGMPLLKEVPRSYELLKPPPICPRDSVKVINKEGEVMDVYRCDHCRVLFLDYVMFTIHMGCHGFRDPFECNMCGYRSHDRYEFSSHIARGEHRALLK

| Variant | effect of a mutation on the interaction |
| --- | --- |
| P519S | with no effect |

Variants of: B4
Conditions: with sf3b4_human SF3B4, Q15427
Sequence of sf3b4_human SF3B4, Q15427 (Q15427 whole entry): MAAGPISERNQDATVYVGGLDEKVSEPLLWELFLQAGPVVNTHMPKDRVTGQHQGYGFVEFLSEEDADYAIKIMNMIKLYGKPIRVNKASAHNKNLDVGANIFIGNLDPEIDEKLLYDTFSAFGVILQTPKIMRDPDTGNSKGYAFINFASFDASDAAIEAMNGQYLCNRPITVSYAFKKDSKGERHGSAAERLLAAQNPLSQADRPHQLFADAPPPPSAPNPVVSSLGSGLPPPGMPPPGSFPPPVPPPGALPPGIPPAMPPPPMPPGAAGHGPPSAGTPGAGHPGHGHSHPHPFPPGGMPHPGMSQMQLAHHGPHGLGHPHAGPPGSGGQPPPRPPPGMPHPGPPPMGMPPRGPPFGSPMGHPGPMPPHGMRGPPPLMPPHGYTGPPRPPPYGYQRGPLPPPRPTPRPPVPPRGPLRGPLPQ

| Variant | effect of a mutation on the interaction |
| --- | --- |
| P519S | with no effect |
